To fix the notation:
T1: Human CD3eg linker (human)
T1 construct: Single-chain construct; also called recombinant human CD3
T1 chain: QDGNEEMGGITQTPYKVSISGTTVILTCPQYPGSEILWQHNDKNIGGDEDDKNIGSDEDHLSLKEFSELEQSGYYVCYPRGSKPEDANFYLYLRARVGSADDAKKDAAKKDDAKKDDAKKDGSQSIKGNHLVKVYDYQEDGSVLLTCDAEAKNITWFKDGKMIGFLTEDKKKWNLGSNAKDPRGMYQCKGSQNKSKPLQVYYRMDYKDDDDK

B1: H183/L072 VL H27dK (antibody, name in Kabat numbering, V domains shown)
VH: QVQLVESGGGLVQPGRSLRLSCAASGFTFSNAWMHWVRQAPGKGLEWVAQIKDKGNAYAAYYAPSVKGRFTISRDDSKNSIYLQMNSLKTEDTAVYYCHYVHYASASTVLPAFGVDAWGQGTTVTVSS
VL: DIVMTQSPLSLPVTPGEPASISCQASQELVKMNRNTYLHWYQQKPGQAPRLLIYKVSNRFPGVPDRFSGSGSGTDFTLKISRVEAEDVGVYYCAQGTSVPFTFGQGTKLEIK
B2: H183/L072 VL H27dT (antibody, name in Kabat numbering, V domains shown)
VH: B1 VH
VL: B1 VL with K31T
B3: H183/L072 VL L33D (antibody, name in Kabat numbering, V domains shown)
VH: B1 VH
VL: B1 VL with K31H, L38D
B4: H183/L072 VL L27bI (antibody, name in Kabat numbering, V domains shown)
VH: B1 VH
VL: B1 VL with L29I, K31H
B5: H183/L072 VL L27bP (antibody, name in Kabat numbering, V domains shown)
VH: B1 VH
VL: B1 VL with L29P, K31H
B6: H183/L072 VL L33A (antibody, name in Kabat numbering, V domains shown)
VH: B1 VH
VL: B1 VL with K31H, L38A
B7: H183/L072 VL L33K (antibody, name in Kabat numbering, V domains shown)
VH: B1 VH
VL: B1 VL with K31H, L38K
B8: H183/L072 VL H27dS (antibody, name in Kabat numbering, V domains shown)
VH: B1 VH
VL: B1 VL with K31S
B9: H183/L072 VL K50R (antibody, name in Kabat numbering, V domains shown)
VH: B1 VH
VL: B1 VL with K31H, K55R
B10: H183/L072 VL H34K (antibody, name in Kabat numbering, V domains shown)
VH: B1 VH
VL: B1 VL with K31H, H39K
B11: H183/L072 VL L33H (antibody, name in Kabat numbering, V domains shown)
VH: B1 VH
VL: B1 VL with K31H, L38H
B12: H183/L072 VL H34N (antibody, name in Kabat numbering, V domains shown)
VH: B1 VH
VL: B1 VL with K31H, H39N
B13: H183/L072 VL H34D (antibody, name in Kabat numbering, V domains shown)
VH: B1 VH
VL: B1 VL with K31H, H39D
B14: H183/L072 VL L27bA (antibody, name in Kabat numbering, V domains shown)
VH: B1 VH
VL: B1 VL with L29A, K31H
B15: H183/L072 VL L27bN (antibody, name in Kabat numbering, V domains shown)
VH: B1 VH
VL: B1 VL with L29N, K31H
B16: H183/L072 VL H27dN (antibody, name in Kabat numbering, V domains shown)
VH: B1 VH
VL: B1 VL with K31N
B17: H183/L072 VL L33G (antibody, name in Kabat numbering, V domains shown)
VH: B1 VH
VL: B1 VL with K31H, L38G
B18: H183/L072 VL K50H (antibody, name in Kabat numbering, V domains shown)
VH: B1 VH
VL: B1 VL with K31H, K55H
B19: H183/L072 VL L27bQ (antibody, name in Kabat numbering, V domains shown)
VH: B1 VH
VL: B1 VL with L29Q, K31H
B20: H183/L072 VL H34A (antibody, name in Kabat numbering, V domains shown)
VH: B1 VH
VL: B1 VL with K31H, H39A
B21: H183/L072 VL L27bM (antibody, name in Kabat numbering, V domains shown)
VH: B1 VH
VL: B1 VL with L29M, K31H
B22: H183/L072 VL L27bS (antibody, name in Kabat numbering, V domains shown)
VH: B1 VH
VL: B1 VL with L29S, K31H
B23: H183/L072 VL L27bH (antibody, name in Kabat numbering, V domains shown)
VH: B1 VH
VL: B1 VL with L29H, K31H
B24: H183/L072 VL H27dQ (antibody, name in Kabat numbering, V domains shown)
VH: B1 VH
VL: B1 VL with K31Q
B25: H183/L072 VL L27bT (antibody, name in Kabat numbering, V domains shown)
VH: B1 VH
VL: B1 VL with L29T, K31H
B26: H183/L072 VL K50E (antibody, name in Kabat numbering, V domains shown)
VH: B1 VH
VL: B1 VL with K31H, K55E
B27: H183/L072 VL H34S (antibody, name in Kabat numbering, V domains shown)
VH: B1 VH
VL: B1 VL with K31H, H39S
B28: H183/L072 VL K50S (antibody, name in Kabat numbering, V domains shown)
VH: B1 VH
VL: B1 VL with K31H, K55S
B29: H183/L072 VL K50D (antibody, name in Kabat numbering, V domains shown)
VH: B1 VH
VL: B1 VL with K31H, K55D
B30: H183/L072 VL H34G (antibody, name in Kabat numbering, V domains shown)
VH: B1 VH
VL: B1 VL with K31H, H39G
B31: H183/L072 VL H34T (antibody, name in Kabat numbering, V domains shown)
VH: B1 VH
VL: B1 VL with K31H, H39T
B32: H183/L072 VL H34L (antibody, name in Kabat numbering, V domains shown)
VH: B1 VH
VL: B1 VL with K31H, H39L
B33: H183/L072 VL L33F (antibody, name in Kabat numbering, V domains shown)
VH: B1 VH
VL: B1 VL with K31H, L38F
B34: H183/L072 VL L27bV (antibody, name in Kabat numbering, V domains shown)
VH: B1 VH
VL: B1 VL with L29V, K31H
B35: H183/L072 VL L27bK (antibody, name in Kabat numbering, V domains shown)
VH: B1 VH
VL: B1 VL with L29K, K31H
B36: H183/L072 VL L27bE (antibody, name in Kabat numbering, V domains shown)
VH: B1 VH
VL: B1 VL with L29E, K31H
B37: H183/L072 VL L33E (antibody, name in Kabat numbering, V domains shown)
VH: B1 VH
VL: B1 VL with K31H, L38E
B38: H183/L072 VL H34Q (antibody, name in Kabat numbering, V domains shown)
VH: B1 VH
VL: B1 VL with K31H, H39Q
B39: H183/L072 VL K50T (antibody, name in Kabat numbering, V domains shown)
VH: B1 VH
VL: B1 VL with K31H, K55T
B40: H183/L072 VL H34E (antibody, name in Kabat numbering, V domains shown)
VH: B1 VH
VL: B1 VL with K31H, H39E
B41: H183/L072 VL L27bF (antibody, name in Kabat numbering, V domains shown)
VH: B1 VH
VL: B1 VL with L29F, K31H
B42: H183/L072 VL L27bD (antibody, name in Kabat numbering, V domains shown)
VH: B1 VH
VL: B1 VL with L29D, K31H

Substitutions are numbered along the chain they refer to. Numbers in names are those of the source.

The target in this test is T1, Human CD3eg linker. The test is described as follows: SPR; fold vs parent H183/L072.
On to B1, for which the “fold change of affinity” value amounted to 0 fold.
Regarding B2, the “fold change of affinity” value is 0 fold.
As for B3, the “fold change of affinity” value was found to be 0 fold.
In the case of B4, the “fold change of affinity” value was found to be 0.5 fold.
To B5 belongs 1.8 fold.
To B6 belongs 0.6 fold.
For the molecule B7, the “fold change of affinity” value is 0 fold.
Consider B8, for which the “fold change of affinity” value was found to be 0 fold.
In the case of B9, the “fold change of affinity” value is 0 fold.
For B10, the “fold change of affinity” value was determined as 0.4 fold.
As for B11, the “fold change of affinity” value was found to be 1.4 fold.
Take B12: the “fold change of affinity” value turned out to be 0.2 fold.
The result for B13 reads 0 fold; that for B14, 0.7 fold; that for B15, 0 fold.
Take B16: the “fold change of affinity” value came to 0 fold.
The result for B17 reads 0 fold; that for B18, 0 fold; that for B19, 0 fold.
B20: the “fold change of affinity” value is 0.6 fold.
Consider B21, for which the “fold change of affinity” value came out at 0.7 fold.
Consider B22, for which the “fold change of affinity” value was determined as 0 fold.
As for B23, the “fold change of affinity” value turned out to be 0 fold.
B24: the “fold change of affinity” value was 0 fold.
In the case of B25, the “fold change of affinity” value was determined as 0.6 fold.
On to B26, for which the “fold change of affinity” value was found to be 0 fold.
The result for B27 reads 0.5 fold; that for B28, 0 fold; that for B29, 0 fold.
The result for B30 reads 0.3 fold; that for B31, 0.4 fold.
To B32 belongs 0 fold.
Consider B33, for which the “fold change of affinity” value turned out to be 1.1 fold.
To B34 belongs 1.7 fold.
As for B35, the “fold change of affinity” value worked out at 0 fold.
In the case of B36, the “fold change of affinity” value turned out to be 0 fold.
In the case of B37, the “fold change of affinity” value worked out at 0 fold.
To B38 belongs 0 fold.
Regarding B39, the “fold change of affinity” value was determined as 0 fold.
As for B40, the “fold change of affinity” value was 0 fold.
The result for B41 reads 0.3 fold; that for B42, 0 fold.
